Measured values reported in US20230272117A1 (published 2023).

Columns and labels:
[1] = target: T1, human ATP Binding Cassette Subfamily C Member 1 (ABCC1) (UniProt P33527 1-1531); assay: FACS titration on C6 cells
[2] = target: T1, human ATP Binding Cassette Subfamily C …; assay: FACS titration on H69AR cells
cynomolgus monkey ABCC1 [3] = target: T2, cynomolgus monkey ABCC1 (UniProt Q864R9 1-1531); assay: FACS titration on C6-cC1 cells
[4] = target: T1, human ATP Binding Cassette Subfamily C …; assay: FACS titration on C6-hC1 cells
cynomolgus monkey ABCC1 [5] = target: T2, cynomolgus monkey ABCC1; assay: FACS titration on C6 cells; C6 cells

T2 sequence (Q864R9 whole entry): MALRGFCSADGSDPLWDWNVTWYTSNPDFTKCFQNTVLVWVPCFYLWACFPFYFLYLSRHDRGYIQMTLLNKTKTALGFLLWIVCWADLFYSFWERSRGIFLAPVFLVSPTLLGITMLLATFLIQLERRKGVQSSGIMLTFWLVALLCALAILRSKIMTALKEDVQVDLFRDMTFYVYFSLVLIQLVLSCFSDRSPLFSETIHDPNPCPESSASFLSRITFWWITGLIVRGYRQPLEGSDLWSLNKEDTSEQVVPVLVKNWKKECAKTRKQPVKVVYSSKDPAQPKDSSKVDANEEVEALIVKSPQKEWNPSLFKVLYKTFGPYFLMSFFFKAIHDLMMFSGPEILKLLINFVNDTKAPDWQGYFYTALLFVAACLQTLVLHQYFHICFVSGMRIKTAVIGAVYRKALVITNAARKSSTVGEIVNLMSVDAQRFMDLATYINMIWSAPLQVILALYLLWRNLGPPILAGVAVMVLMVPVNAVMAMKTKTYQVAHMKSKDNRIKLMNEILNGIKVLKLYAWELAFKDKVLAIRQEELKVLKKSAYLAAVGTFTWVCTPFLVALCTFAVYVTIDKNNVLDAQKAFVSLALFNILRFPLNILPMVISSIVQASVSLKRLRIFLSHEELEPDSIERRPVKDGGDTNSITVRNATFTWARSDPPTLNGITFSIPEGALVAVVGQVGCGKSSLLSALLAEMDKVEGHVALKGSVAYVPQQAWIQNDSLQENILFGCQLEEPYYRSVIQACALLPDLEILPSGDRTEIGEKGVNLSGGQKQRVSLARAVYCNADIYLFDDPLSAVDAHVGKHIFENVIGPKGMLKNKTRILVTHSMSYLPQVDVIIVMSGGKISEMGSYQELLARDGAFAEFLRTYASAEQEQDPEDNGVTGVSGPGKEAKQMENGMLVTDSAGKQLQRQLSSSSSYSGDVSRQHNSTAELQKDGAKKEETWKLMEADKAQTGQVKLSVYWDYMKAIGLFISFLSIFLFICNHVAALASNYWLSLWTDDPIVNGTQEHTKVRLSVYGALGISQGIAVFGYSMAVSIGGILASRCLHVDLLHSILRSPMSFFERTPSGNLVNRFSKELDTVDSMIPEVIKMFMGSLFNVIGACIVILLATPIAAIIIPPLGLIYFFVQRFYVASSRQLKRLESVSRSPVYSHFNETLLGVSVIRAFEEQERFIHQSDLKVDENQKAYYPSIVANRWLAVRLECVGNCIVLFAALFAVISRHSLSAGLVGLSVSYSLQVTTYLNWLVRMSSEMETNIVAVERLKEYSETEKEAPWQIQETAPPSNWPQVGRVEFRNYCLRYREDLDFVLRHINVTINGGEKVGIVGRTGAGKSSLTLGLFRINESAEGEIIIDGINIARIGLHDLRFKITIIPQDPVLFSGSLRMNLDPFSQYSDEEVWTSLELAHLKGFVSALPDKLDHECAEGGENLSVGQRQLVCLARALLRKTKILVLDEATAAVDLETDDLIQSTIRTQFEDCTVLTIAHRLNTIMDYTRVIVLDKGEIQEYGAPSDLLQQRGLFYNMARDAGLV

| Binder | Kd [1] [nM] | Kd [2] [nM] | Kd [4] [nM] | Kd (cynomolgus monkey ABCC1 [3]) [nM] | further results |
| --- | --- | --- | --- | --- | --- |
| C1.781A (antibody, V domains shown) VH: EVQLTESGPGLVQPSQTLSLTCTVSGFSLTSNGVSWVRLPPGKGLEWIAAISSGGNIYYNSALKSRLSISRDTSKSQVFLKMNSLQTEDTAIYFCTRERGWNYPGITNGYYFDYWGQGTSVTVSS VL: DIVLTQSPSLLSASVGDRVILSCKAGQKINNYLAWYQQKLGEAPKLLIYNANSLQTGIPSRFSGSGSGTDYTLTISSLQPEDVATYFCQQYNSWYTFGAGTKLEIK | 116 |  |  |  |  |
| C1.505.hu11 (antibody, V domains shown) VH: EVQLQESGPGLVKPSETLSLTCTVSGFSLTSNGVSWVRQPPGKGLEWIAAISSGGSTYYNSAFKSRLTISRDTSKNQVSLKLSSVTAADTAVYYCARHRGYYWSNWGYFDYWGQGTLVTVSS VL: DIQLTQSPSSLSASVGDRVTITCKGSQNINNYLAWYQQKPGKAPKLLIYKTNSLQTGIPSRFSGSGSGTDYTLTISSLQPEDFATYYCCQYNDGYTFGQGTKLEIK | 158 |  |  |  |  |
| C1.309 (antibody, V domains shown) VH: QVQLKESGPGLVAPSQSLSITCTVSGFSLTSYDITWIRQPPGKGLEWLGVIWTGGGTNYNSAFMSRLSISKDSSKSQVFLKMNSLRTDDTAIYYCVRDLRYGYDGFWYFDVWGAGTTVTVSS VL: DVVMTQTPLSLPVSLGDQASISCRSSQSIVHSNGNTYLEWYLQKPGQSPKLLIYKVSNRFSGVPDRFSGSGTGTDFTLKISRVEAEDLGVYYCFQGSHVPRTFGGGTKLEIK | 133 | 10 |  |  |  |
| C1.779B (antibody, V domains shown) VH: EVKLLESGPGLVQPSQTLSLTCTVSGFSLTSNGVIWVRQPPGKGLEWIAAISSGGNIYYNSGLKSRLGISRDTSKSQVFLKMNSLQTEDTAIYFCTRARGTTTAYFMDAWGQGASVTVSS VL: ETVMTQSPSSLAVSAGETVTMNCKSSQSLLYSGNQKNYLAWYQQKPGQSPKLLIYWASTRQSGVPDRFIGSGSGTDFTLTISSVQAEDLAIYYCQQYYDTLMKMFGAGTKLEIK | 83.3 | 10.1 |  |  |  |
| C1.844 (antibody, V domains shown) VH: EVQLKESGPGLVQPSQTLSLTCTVSGFSLTSNGVIWVRQPPGKGLEWIAAISSGGNIYYNSGLKSRLGISRDTSKSQVFLKMNSLQTEDTAIYFCTRARGTTTAYVMDAWGQGASVTVSS VL: DIVMTQSPSSLAVSAGETVNINCKSSQSLLYSVNQKNYLAWYQQKPGQSPKLLIYWASTRQSGVPDRFIGSGSGTDFTLTISSVQAEDLAIYYCQQYYDTLMKMFGAGTKLELK |  |  | 65.1 | 34.1 |  |
| C1.830B (antibody, V domains shown) VH: EVQLKESGPGLVRPSQTLSLTCSVSGFSLTNYNVHWVRQPTGKGLEWMGIIWTGGYTDYNSDLKSRLSITRDTSKSQVFLKMNGLQTEDVATYYCARERHTMGITKSWYFDYWGQGASVTVSS VL: DILMTQSPASLSASLGETISIECLASEGIFSYLGWYQQKPGKSPQLLIYGANSLQAGVPSRFSGSGSGTQYSLKISSMQPEDEGDYFCQQSYKFPVTFGSGTKLELK |  |  | 14.4 | 8.6 |  |
| C1.786a (antibody, V domains shown) VH: EVQLTESGLGLVQPSQTLSLTCSVSGFSLTSYNVHWVRQPTGKGLEWMGVIWTGGYTDSNSPLKSRLSITRDTSKSQVFLKMNSLQSEDIATYYCARERHTMGITKSWYFDYWGQGVMVTVSS VL: DVQMTQSPASLSASLGETISIECLASEGIFSYLAWYQQKPGKSPQLLIYGANTLQAGVPSRFSGSGSGTQYSLKISSMQPEDEGDYFCQQSYKFPVTFGSGTKLELK |  | 8.3 |  |  |  |
| C1.777a (antibody, V domains shown) VH: EVQLVESGPGLVQPSQTLSLTCTVSGFSLTNNGVSWVRQPPGKGLEWIAAISSGGSIYYNLAFKSRLSISRNTSKGHVLLKMNSLQTEDTAMYFCVRHRGYYGFNWGYFDYWGQGVMVTVSS VL: NIQLTQSPSLLSASVGDRVTLSCKGSQNINNYLAWYQQKLGEAPKLLIYKTNSLQTGIPSRFSGSGSGTDYTLTISSLHSEDLATYYCYQYNDGYTFGAGTKLELK | 41.2 | 4.2 |  |  |  |
| C1.841 (antibody, V domains shown) VH: EVQLLESGPGLVQPSQTLSLTCTVSGFSLTNNGVSWVRQPPGKGLEWVAAMSSGGNIYYNSAFKSRLSISRHTSKSQVLLKMNSLQTEDTAMYFCARHRGYYGYNWGYFDYWGQGVMVTVSS VL: NIQLTQSPSLLSASVGDSVSLRCKGSQNIYNYLAWYQQKLGEAPKLLIYKTNNLQTGIPSRFSGSGSGTDYTLTISSLNSEDLATYYCCQYNNGYTFGAGTKLELK |  |  | 103 | 42.3 |  |
| C1.876 (antibody, V domains shown) VH: QVQLKESGPGLVQPSQTLSLTCTVSGFSLTNNGVSWVRQPPGKGLEWIAAMSSGGSIYYNSAFKSRLSISRHTSKSQVLLQMNSLQTEDTAMYFCTRHRGYYGYNWGYFDYWGQGVMVTVSS VL: DIQLTQSPSLLSASVGDSVSLRCKGSQNIYNYLAWYQQKLGEAPKLLIYKTNNLQTGIPSRFSGSGSGTDYTLTISSLNSEDLATYYCCQYNNGYTFGAGTKVELK |  |  |  |  | Kd (cynomolgus monkey ABCC1 [5]): 3.7 nM |
| C1.773a (antibody, V domains shown) VH: EVQLKESGPGLVQPSQTLSLTCTVSGFSLTSNGVSWVRQPPGKGLEWIAAISSGGSIYYNSAFKSRLSISRHTSKSQVLLKMNSLQTEDTAMYFCARHRGYYGYNWGYFDYWGQGASVTVSS VL: NIQLTQSPSLLSASVGDRVTLSCKGSQNINNYLAWYQQKLGEAPKLLIYKTNSLQTGIPSRFSGSGSGTDYTLTISSLHSEDLATYYCSQYNNGYTFGAGTKLEIK | 33 | 3.2 |  |  |  |
| C1.784a (antibody, V domains shown) VH: EVKLEESGPGLVQPSQTLSLTCTVSGFSLTNNGVSWVRQPPGKGLEWIAAMSSGGNIYYNSAFKSRLSISRDTSKSQVLLKMSSLQTEDTAMYFCGRHRGYYWYNWGFFDYWGQGASVTVSS VL: NIQLTQSPSLLSASVGDRVTLSCKGSQNINNYLAWYQQKLGEAPKLLIYKTNSLQTGIPSRFSGSGSGTDFTLTISSLHSEDLATYYCCQYNNGYTFGAGTKLELK | 38.2 | 7 |  |  |  |
| C1.778b (antibody, V domains shown) VH: EVQRKESGPGLVQPSQTLSLTCTVSGFSLTNNGVSWVRQPPGKGLEWIAAISSGGSIYYNSAFKSRLSISRITSKSQVLLKMNSLQTEDTAMYFCARHRGYYGYNWGYFDYWGQGVMVTVSS VL: NIQLTQSPSLLSASVGDRVTLSCKGSQNIDNYLAWYQQKLGEPPKLLIYKTNSLQTGIPSRFSGSGSGTDYTLTISSLHSEDLATYYCYQYNNGYTFGAGTKLELKR | 667 | 8.7 |  |  | Kd (cynomolgus monkey ABCC1 [5]): 28.2 nM |
| C1.877 (antibody, V domains shown) VH: EVQLTESGPGLVQPSQTLSLTCTVSGFSLTSNGVSWVRQPPGKGLEWIAAISSGGSTYYNSAFKSRLSISRHTSKSQVLLNMNSLQTEDTAMYFCARHRGYYWSNWGYFDYWGQGVMVTVSS VL: DIVMTQSPSLLSASVGDRVTLSCKGSQNINNYLAWYQQKLGEAPKLLIYETNSLQTGIPSRFSGSGSGTDYTLTLSSLHSEDLATYYCYQYNDGYTFGAGTKLEIK |  |  |  |  | Kd (cynomolgus monkey ABCC1 [5]): 66.8 nM |
| C1.879A (antibody, V domains shown) VH: EVQLTESGPGLVQPSQTLSLTCTVSGFSLTSNGVSWVRQPPGKGLEWIAAISSGGSTYYNSAFKSRLSISRHTSKSQVLLNMNSLQTEDTAMYFCARHRGYYWSNWGYFDYWGQGVMVTVSS VL: DIQLTQSPSLLSASVGDRVTLSCKGSQNINNYLAWYQQKVGEAPKLLIYKTNSLQTGIPSRFSGSGSGTDYTLTISSLHSEDLATYYCYQYNNGYTFGAGTKLELKR |  |  |  |  | Kd (cynomolgus monkey ABCC1 [5]): 27.2 nM |

Continued, in another order:

| Kd [1] [nM] | Kd [2] [nM] | Kd [4] [nM] | Binder | Kd (cynomolgus monkey ABCC1 [3]) [nM] | further results |
| --- | --- | --- | --- | --- | --- |
|  |  | 98 | C1.851 (antibody, V domains shown) VH: EVQLKESGPGLVQPSQTLSLTCTVSGFSLTNNGVSWIRQPPGKGLEWIAAISSGGNIYYNSAFKSRLSISRNTSKRQVLLKMNSLQTEDTAMYFCARHRGYYGYNWGYFDYWGQGASVTVSS VL: NIQLTQSPSLLSASVGDRVTLSCKGSQNINNYLAWYQQKLGEAPKLLIYKTNSLQTGIPSRFSGSGSGTDYTLTISSLHSEDLATYYCCQYNNGYTFGAGTKLELKR | 28 |  |
|  |  | 21.8 | C1.845 (antibody, V domains shown) VH: EVQLVESGPGLVQPSQTLSLTCTVSGFSLTNNGVSWVRQPPGKGLEWIAAISSGGSIYYNLAFKSRLSISRNTSKGQVLLKMNSLQTEDTAMYFCARHRGYYGYNWGYFDYWGQGASVTVSS VL: NIQLTQSPSLLSASVGDRVTLSCKGSQNINNYLAWYQQKLGEAPKLLIYKTNSLQTGIPSRFSGSGSGSDYTLTISSLHSEDLATYYCYQYNDGYTFGAGTKLELK | 20.1 |  |
|  |  | > 1000 | C1.855 (antibody, V domains shown) VH: EVQLKESGPGLVQPSQTLSLTCTVSGFSLTSNGVSWVRQPPGKGLEWIAAISNGGNIYYNSAFKSRLSISRHTSKSQVLLKMNSLQTEDTAMYFCARHRGYYGYNWGYFDYWGQGASVTVSS VL: NIQLTQSPSLLSASVGDRVTLSCKGSQNINNYLGWYQQKLGEAPRLLIYKTNSLQTGIPSRFSGSGSGTDYTLTISSLHSEDLATYYCYQYNNGYTFGAGTKLELK | 279 |  |
|  |  | 21.7 | C1.847 (antibody, V domains shown) VH: EVQLKESGPGLVQPSQTLSLTCTVSGFSLTNNGVSWVRQPPGKGLEWIAAISSGGNIYHNSALKSRLSISRNTAQSQVLLKMNSLQTEDTAMYFCARHRGYYGYNWGYFDYWGQGTLVTVSS VL: NIQLTQSPSLLSASVGDRVTLSCKGSQNIYNYLAWYQQKLGEAPKLLIYKTNSLQTGIPSRFSGSGSGTDYTLTISSLHSEDLATYYCCQYNNGYTFGAGTKLELK | 23.3 |  |
